Reference: patent US20180215825A1 (BEIGENE, published 2018)
Read-outs that look alike come from different tables or passages of the source.

What was measured:
[1] = molecular target: T1, human PD-L1, full length, expressed on cells (human, UniProt Q9NZQ7 19-290); assay: FACS competition with biotin-CD80/Fc on HEK293/PD-L1 cells
T1 construct: also called HEK293/PD-L1 cells; HEK293/OS8/PD-L1 cells

human PD-L1-ECD/His [2] = molecular target: T2, human PD-L1-ECD/His (human, UniProt Q9NZQ7 19-238); assay: SPR (BIAcore T-200), human PD-L1/His on CM5 chip, Fab injected
T2 construct: Expressed in 293-F cells; also called PD-L1/His; human PD-L1/His
T2 sequence (Q9NZQ7 19-238): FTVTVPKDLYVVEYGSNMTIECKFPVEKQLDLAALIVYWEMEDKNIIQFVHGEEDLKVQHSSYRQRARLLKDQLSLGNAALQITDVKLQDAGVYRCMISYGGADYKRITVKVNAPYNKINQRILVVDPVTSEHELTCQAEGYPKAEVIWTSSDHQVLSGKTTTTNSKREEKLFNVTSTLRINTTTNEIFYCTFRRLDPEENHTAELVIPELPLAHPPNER
Procedure: (§1) For affinity determinations of anti-PD-L1 Fabs, SPR assays were performed using BIAcore™ T-200 (GE Life Sciences). Briefly, human PD-L1/His was coupled to an activated CM5 biosensor chip (Cat. No. BR100530, GE Life Sciences) to achieve approximately 100-200 response units (RU), followed by blocking un-reacted groups with 1M ethanolamine. A serial dilutions of 0.12 nM to 90 nM Fab samples were injected, mixed into the SPR running buffer (10 mM HEPES, 150 mM NaCl, 0.05% Tween20, pH7.4) at 30 μL/minute, and binding responses on human PD-L1/His were calculated by substracting of RU from a blank flow-cell. Association rates (kₒₙ) and dissociation rates (koff) were calculated using the one-to-one Langmuir binding model (BIA Evaluation Software, GE Life Sciences). The equilibrium dissociation constant (Kd) was calculated as the ratio koff/kₒₙ.
(§2) For affinity determinations of anti-PD-L1 Fabs, SPR assays were conducted using BIAcore™ T-200 instrument (GE Life Sciences, Shanghai, China) as described earlier. Association rates (kₒₙ) and dissociation rates (koff) were calculated using the one-to-one Langmuir binding model (BIA Evaluation Software, GE Life Sciences). The equilibrium dissociation constant (Kd) was calculated as the ratio koff/kₒₙ.

[3] = molecular target: T1, human PD-L1, full length, expressed on …; assay: FACS competition with biotin-PD-1/Fc on HEK293/PD-L1 cells
[4] = molecular target: T1, human PD-L1, full length, expressed on …; assay: cell-based or functional assay
[5] = molecular target: T1, human PD-L1, full length, expressed on …; assay: FACS competition with biotin-CD80/Fc on HEK293/PD-L1 cells; remark: listed apart in the source
[6] = molecular target: T1, human PD-L1, full length, expressed on …; assay: FACS competition with biotin-PD-1/Fc on HEK293/PD-L1 cells; remark: listed apart in the source
human PD-L1-ECD/His [7] = molecular target: T2, human PD-L1-ECD/His; assay: SPR (BIAcore T-200), human PD-L1, Fab injected
Procedure: as §1, §2

[8] = molecular target: T3, cynomolgus monkey PD-L1/His (cynomolgus monkey (Macaca fascicularis), UniProt G7PSE7 19-238); assay: SPR (BIAcore T-200), monkey PD-L1, Fab injected
T3 construct: extracellular domain; Said to be expressed and purified in a similar way to the human PD-L1/His (PD-L1-ECD/His); not shown: His tag
T3 sequence (G7PSE7 entry or part of it): as the sequence (Q9NZQ7 19-238) above, with A33T, A34S, S62N, R68Q, Q82R, F173L, T185A, T192I, H215L counted along it

[9] = molecular target: T1, human PD-L1, full length, expressed on …; assay: cell-based or functional assay; remark: listed apart in the source
[10] = molecular target: T1, human PD-L1, full length, expressed on …; assay: FACS competition with biotin-PD-1/Fc on HEK293/PD-L1 cells; remark: listed apart in the source
Text: Using this method, we evaluated functional strength of anti-PD-L1 mAbs.

[11] = molecular target: T1, human PD-L1, full length, expressed on …; assay: FACS competition with biotin-CD80/Fc on HEK293/PD-L1 cells; remark: listed apart in the source
[12] = molecular target: T1, human PD-L1, full length, expressed on …; assay: cell-based or functional assay; remark: listed apart in the source
human PD-L1-ECD/His [13] = molecular target: T2, human PD-L1-ECD/His; assay: SPR (BIAcore T-200), human PD-L1/His on CM5 chip, Fab injected; remark: listed apart in the source
Procedure: as §1

T1 sequence (Q9NZQ7 19-290 limits assumed): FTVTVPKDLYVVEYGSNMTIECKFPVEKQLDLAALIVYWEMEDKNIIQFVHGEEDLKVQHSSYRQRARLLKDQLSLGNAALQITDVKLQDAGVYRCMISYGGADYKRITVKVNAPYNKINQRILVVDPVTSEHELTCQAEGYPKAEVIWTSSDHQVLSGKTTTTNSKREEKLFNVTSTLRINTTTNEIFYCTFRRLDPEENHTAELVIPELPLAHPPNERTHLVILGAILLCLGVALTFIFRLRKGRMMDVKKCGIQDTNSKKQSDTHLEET

Row | Kd (human PD-L1-ECD/His [2]) [pM] | koff (human PD-L1-ECD/His [2]) [s⁻¹] | kon (human PD-L1-ECD/His [2]) [M⁻¹ s⁻¹] | IC50 [5] [µg/mL] | IC50 [6] [µg/mL] | Kd (human PD-L1-ECD/His [7]) [pM] | koff (human PD-L1-ECD/His [7]) [s⁻¹] | kon (human PD-L1-ECD/His [7]) [M⁻¹ s⁻¹] | Kd [8] [pM] | koff [8] [s⁻¹] | kon [8] [M⁻¹ s⁻¹] | IL-2 release in HuT78/P3Z: IC50 [9] [µg/mL] | IL-2 release in HuT78/PD-1: EC50 [9] [µg/mL] | Binder | also measured
1 | 0.17 | 2.2e-07 | 1.28e+06 | – | – | – | – | – | – | – | – | – | – | hu333-3A2 Fab (Fab, V domains shown, Human Fab format; constant parts not restated) VH: EVQLVESGGGLVQPGGSLRLSCAVSGFSLTSYGVHWVRQAPGKGLEWVAVIWAGGSTNYVDSVKGRLTISKDNAKNTVYLQMNSLRAEDTAVYYCAKPYGNSAMDYWGQGTLVTVSS VL: DIQMTQSPSSLSASVGDRVTITCKASQDVGIVVAWYQQKPGKAPKLLIYWASIRHTGVPSRFSGSGSGTEFTLTISSLQPDDFATYYCQQYSNYPLYTFGQGTKVEIK | IC50 [1]: 0.044 µg/mL; Max inhibition [1]: 99%; IC50 [3]: 0.068 µg/mL; Max inhibition [3]: 100%; IL-2 release in HuT78/P3Z: IC50 [4]: 0.014 µg/mL; IL-2 release in HuT78/P3Z: Max inhibition [4]: 95%; IL-2 release in HuT78/PD-1: EC50 [4]: 0.057 µg/mL; IL-2 release in HuT78/PD-1: Top line [4]: 2550 pg/mL
2 | 2.65 | 1.03e-05 | 3.88e+06 | 0.045 | 0.05 | 2.65 | 1.03e-05 | 3.88e+06 | 2.91 | 9.3e-06 | 3.19e+06 | 0.005 | 0.05 | hu333-4A2 Fab (Fab, V domains shown, Human IgG1 Fab format: Vh fused to human IgG1-CH1 with C-terminal His6 tag, Vk fused to the constant region of kappa chain) VH: EVQLVESGGGLVQPGGSLRLSCAVSGFSLTSYGVHWVRQAPGKGLEWVAVIWAGGSTNYVDSVKGRFTISKDNAKNTVYLQMNSLRAEDTAVYYCAKPYGTSAMDYWGQGTLVTVSS VL: DIQMTQSPSSLSASVGDRVTITCKASQDVGIVVAWYQQKPGKAPKLLIYWASIRHTGVPSRFSGSGSGTEFTLTISSLQPDDFATYYCQQYSNYPLYTFGQGTKVEIK | –
3 | 3.5 | 1.32e-05 | 3.78e+06 | 0.062 | 0.053 | 3.5 | 1.32e-05 | 3.78e+06 | 2.5 | 8e-06 | 3.2e+06 | 0.016 | 0.058 | hu333-4B2 Fab (Fab, V domains shown, Human IgG1 Fab format: Vh fused to human IgG1-CH1 with C-terminal His6 tag, Vk fused to the constant region of kappa chain) VH: EVQLVESGGGLVQPGGSLRLSCAVSGFSLTSYGVHWVRQAPGKGLEWVAVIWAGGSTNYADSVKGRFTISKDTSKNTVYLQMNSLRAEDTAVYYCAKPYGTSAMDYWGQGTLVTVSS VL: DIQMTQSPSSLSASVGDRVTITCKASQDVGIVVAWYQQKPGKAPKLLIYWASIRHTGVPSRFSGSGSGTEFTLTISSLQPDDFATYYCQQYSNYPLYTFGQGTKVEIK | –
4 | – | – | – | – | – | – | – | – | – | – | – | – | – | hu333-1A Fab (Fab, V domains shown, Human Fab format: Vh joined to human IgG2 CH1 with C232S and C233S (Kabat numbering) and a C-terminal 8xHis tag; Vk joined to the constant region of human kappa chain) VH: EVQLVESGGGLVQPGGSLRLSCAVSGFSLTSYGVHWVRQAPGKGLEWVAVIWAGGSTNYNSALMSRLTISKDNAKNSVYLQMNSLRAEDTAVYYCAKPYGNSAMDYWGQGTLVTVSS VL: DIQMTQSPSTLSASVGDRVTITCKASQDVGIVVAWYQQKPGKAPKLLIYWASIRHTGVPSRFSGSGSGTEFTLTISSLQPDDFATYYCQQYSNYPLYTFGQGTKLEIK | IC50 [10]: 0.057 µg/mL; IC50 [11]: 0.049 µg/mL; IL-2 release in HuT78/P3Z: IC50 [12]: 0.012 µg/mL; IL-2 release in HuT78/PD-1: EC50 [12]: 0.066 µg/mL; Kd (human PD-L1-ECD/His [13]): 9.88 pM; koff (human PD-L1-ECD/His [13]): 1.59e-05 s⁻¹; kon (human PD-L1-ECD/His [13]): 1.61e+06 M⁻¹ s⁻¹
